According to patent US20120301468A1, “ANTI-MN ANTIBODIES AND METHODS OF USING SAME” (BAYER HEALTHCARE LLC, priority 2005, published 2012):

Molecular target: MN (Homo sapiens, UniProt Q16790)
Test: Surface plasmon resonance (BIAcore) binding to MN protein
Design: The MN protein represents the entire extra-cellular domain of the protein with a C-terminal histag for purification; His tag (C); made in house; host or cells: HKB-11 (mammalian cell line)
Conditions: soluble MN, panning-derived full-length antibodies, read-out: Affinity (Kd)
Experimental: The binding interactions between MN protein and the antibodies of this invention were analyzed using surface plasmon resonance technology on a BIAcore 3000 instrument (BIAcore, Uppsala, Sweden). For the binding of full-length IgGs (1e4, 1aa1, and 3ee9), goat anti-human IgG Fc was covalently coupled to the CM5 biosensor chip at high density using a standard amine coupling kit (BIAcore, Uppsala, Sweden). A capture assay was then used to bind these IgG to the anti-human IgG Fc-immobilized surface, aiming for a 300 response unit BIAcore signal. […] After ligand binding, the flow rate was then increased to 25 μl/min and various concentrations of MN analyte (e.g., range of 50 nM to 1 nM) were flowed over the surface for 10 minutes such that the association phase could be monitored. […] The binding of Fabs to MN was similarly determined except that an anti-human-Fab IgG was immobilized onto the chip and used to capture the Fabs prior to the assessment of MN binding.
Binding interactions between HKB11-expressed human MN protein and human full-length anti-MN MAbs were analyzed using surface plasmon resonance technology on a BIAcore 3000 instrument (BIAcore, Uppsala, Sweden). […] After ligand binding, flow rate was increased to 25 ul/min and MN analyte (50 nM to 1 nM) was flowed over the surface for 10 min such that the association phase could be monitored. […]

B1: 3a4: anti-MN antibody; CDRs SEQ ID NOS: 60, 66, 73, 108, 110, and 112 (antibody, V domains shown)
VH: QVELVESGGGLVQPGGSLRLSCAASGFTFSDYSINWVRQAPGKGLEYVSNISYSGSSTYYADSVKGRFTISRDNSKNTLYLQMNSLRAEDTAVYYCARFKYSGGSDSWGQGTLVTVSS
VL: DIELTQPPSVSVAPGQTARISCSGDNLPDFYVHWYQQKPGQAPVLVISEDNKRPSGIPERFSGSNSGNTATLTISGTQAEDEADYYCSTYGYTYSYSVFGGGTKLTVL
Kd: 1 nM
